Laboratory results: patent publication US20060257938A1, “Method of screening for drugs that block ligand binding to a lipid binding protein” (priority 2005, published 2006)
Numbering of substitutions follows the chain as printed. Where “and” joins values, the source holds several entries; their conditions need not be identical. Equal entries are not always repeated.

B1: 72G 73F 74E (protein, listed as Rattus norvegicus)
chain: AFDGTWKVDRNENYEKFMEKMGINVVKRKLGAHDNLKLTITQEGNKFTVKESSNFRNIDVVFELGVDFAYSGFEGTELTGTWTMEGNKLVGKFKRVDNGKELIAVREISGNELIQTYTYEGVEAKRIFKKE
modifications: PEPTIDE (1)...(131) wild-type rat intestinal fatty acid binding protein
B2: 72A 73W 74A (protein, listed as Rattus norvegicus)
chain: B1 chain with G72A, F73W, E74A
modifications: PEPTIDE (1)...(131) wild-type rat intestinal fatty acid binding protein
B3: 18V 31A 55W 73W 72A (protein, listed as Rattus norvegicus)
chain: B1 chain with M18V, G31A, F55W, G72A, F73W, E74D
modifications: PEPTIDE (1)...(131) wild-type rat intestinal fatty acid binding protein
B4: 18I 31L 55L 72A (protein, listed as Rattus norvegicus)
chain: B1 chain with M18I, G31L, F55L, G72A, F73A, E74D
modifications: PEPTIDE (1)...(131) wild-type rat intestinal fatty acid binding protein
B5: 18V 31A 73F 72A (protein, listed as Rattus norvegicus)
chain: B1 chain with M18V, G31A, G72A, E74D
modifications: PEPTIDE (1)...(131) wild-type rat intestinal fatty acid binding protein
B6: 18I 31A 73F 72A (protein, listed as Rattus norvegicus)
chain: B1 chain with M18I, G31A, G72A, E74D
modifications: PEPTIDE (1)...(131) wild-type rat intestinal fatty acid binding protein
B7: 72V 73W 74S (protein, listed as Rattus norvegicus)
chain: B1 chain with G72V, F73W, E74S
modifications: PEPTIDE (1)...(131) wild-type rat intestinal fatty acid binding protein
B8: 72S 73W 74G (protein, listed as Rattus norvegicus)
chain: B1 chain with G72S, F73W, E74G
modifications: PEPTIDE (1)...(131) wild-type rat intestinal fatty acid binding protein
B9: 18I 31I 55M 73I 72A (protein, listed as Rattus norvegicus)
chain: B1 chain with M18I, G31I, F55M, G72A, F73I, E74D
modifications: PEPTIDE (1)...(131) wild-type rat intestinal fatty acid binding protein
B10: 18I 31Y 73V 72A (protein, listed as Rattus norvegicus)
chain: B1 chain with M18I, G31Y, G72A, F73V, E74D
modifications: PEPTIDE (1)...(131) wild-type rat intestinal fatty acid binding protein
B11: 72I 73W 74N (protein, listed as Rattus norvegicus)
chain: B1 chain with G72I, F73W, E74N
modifications: PEPTIDE (1)...(131) wild-type rat intestinal fatty acid binding protein
B12: 73F 72A (protein, listed as Rattus norvegicus)
chain: B1 chain with G72A, E74D
modifications: PEPTIDE (1)...(131) wild-type rat intestinal fatty acid binding protein
B13: 18I 31I 55M 73V 72A (protein, listed as Rattus norvegicus)
chain: B1 chain with M18I, G31I, F55M, G72A, F73V, E74D
modifications: PEPTIDE (1)...(131) wild-type rat intestinal fatty acid binding protein
B14: 18I 31V 73G 72A (protein, listed as Rattus norvegicus)
chain: B1 chain with M18I, G31V, G72A, F73G, E74D
modifications: PEPTIDE (1)...(131) wild-type rat intestinal fatty acid binding protein
B15: 14Q 18L 31A 73W 117V 72A (protein, listed as Rattus norvegicus)
chain: B1 chain with Y14Q, M18L, G31A, G72A, F73W, E74D, Y117V
modifications: PEPTIDE (1)...(131) wild-type rat intestinal fatty acid binding protein
B16: 72V 73W 74N (protein, listed as Rattus norvegicus)
chain: B1 chain with G72V, F73W, E74N
modifications: PEPTIDE (1)...(131) wild-type rat intestinal fatty acid binding protein

Experiment: Probe fluorescence ratio response to stearic acid relative to ADIFAB2
Format: binding
Conditions: response relative to ADIFAB2
Method in brief: (§1)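 Fluorescently labeled rat intestinal FABP variants were read at two emission wavelengths, near the unbound maximum (about 420 to 480 nm) and the FFA-bound maximum (about 495 to 580 nm). R = Fλ1/Fλ2 after subtracting probe-free intensity; ΔR = R+agent − R0, normalized to ADIFAB2 (rI-FABP-L72A).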
In the case of B1, the “DR/DR SA” value is reported as 0.239.
With B2 the “DR/DR SA” value was 0.330.
In the case of B3, the “DR/DR SA” value is reported as 0.392.
With B4 the “DR/DR SA” value was 0.310.
With B5 the “DR/DR SA” value was 0.375.
With B6 the “DR/DR SA” value was 0.404 and 0.406.
For B7, the “DR/DR SA” value was 0.574.
For B8, the “DR/DR SA” value was 0.411.
With B9 the “DR/DR SA” value was 0.382.
With B10 the “DR/DR SA” value was 1.047.
For B11, the “DR/DR SA” value was 0.329.
In the case of B12, the “DR/DR SA” value is reported as 0.399.
With B13 the “DR/DR SA” value was 0.502.
With B14 the “DR/DR SA” value was 0.543.
For B15, the “DR/DR SA” value was 0.384.
In the case of B16, the “DR/DR SA” value is reported as 0.468.

Experiment: Probe fluorescence ratio response to arachidonic acid relative to ADIFAB2
Format: binding
Conditions: arachidonic acid; response relative to ADIFAB2
Method in brief: as §1
In the case of B1, the “DR/DR AA” value is reported as 0.910.
In the case of B2, the “DR/DR AA” value is reported as 0.892.
For B3, the “DR/DR AA” value was 1.130.
For B4, the “DR/DR AA” value was 1.285.
In the case of B5, the “DR/DR AA” value is reported as 1.142.
For B6, the “DR/DR AA” value was 1.314 and 1.296.
With B7 the “DR/DR AA” value was 1.424.
In the case of B8, the “DR/DR AA” value is reported as 1.012.
For B9, the “DR/DR AA” value was 1.354.
In the case of B10, the “DR/DR AA” value is reported as 1.801.
For B11, the “DR/DR AA” value was 0.791.
With B12 the “DR/DR AA” value was 1.051.
With B13 the “DR/DR AA” value was 1.710.
In the case of B14, the “DR/DR AA” value is reported as 1.348.
For B15, the “DR/DR AA” value was 1.558.
For B16, the “DR/DR AA” value was 1.191.

Experiment: Probe fluorescence ratio response to palmitic acid relative to ADIFAB2
Format: binding
Conditions: response relative to ADIFAB2
Method in brief: as §1
For B1, the “DR/DR PA” value was 0.981.
In the case of B2, the “DR/DR PA” value is reported as 1.942.
For B3, the “DR/DR PA” value was 1.505.
In the case of B4, the “DR/DR PA” value is reported as 1.523.
With B5 the “DR/DR PA” value was 1.510.
With B6 the “DR/DR PA” value was 1.515 and 1.372.
In the case of B7, the “DR/DR PA” value is reported as 1.789.
In the case of B8, the “DR/DR PA” value is reported as 1.653.
With B9 the “DR/DR PA” value was 1.546.
In the case of B10, the “DR/DR PA” value is reported as 1.615.
With B11 the “DR/DR PA” value was 2.091.
In the case of B12, the “DR/DR PA” value is reported as 1.118.
For B13, the “DR/DR PA” value was 1.883.
In the case of B14, the “DR/DR PA” value is reported as 1.630.
In the case of B15, the “DR/DR PA” value is reported as 1.084.
In the case of B16, the “DR/DR PA” value is reported as 2.229.

Experiment: Probe fluorescence ratio response to oleic acid relative to ADIFAB2
Format: binding
Conditions: response relative to ADIFAB2
Method in brief: as §1
For B1, the “DR/DR OA” value was 0.585.
In the case of B2, the “DR/DR OA” value is reported as 0.933.
With B3 the “DR/DR OA” value was 0.913.
For B4, the “DR/DR OA” value was 0.759.
For B5, the “DR/DR OA” value was 0.828.
For B6, the “DR/DR OA” value was 0.950 and 0.995.
For B7, the “DR/DR OA” value was 1.477.
In the case of B8, the “DR/DR OA” value is reported as 0.970.
In the case of B9, the “DR/DR OA” value is reported as 0.822.
In the case of B10, the “DR/DR OA” value is reported as 1.818.
In the case of B11, the “DR/DR OA” value is reported as 0.779.
In the case of B12, the “DR/DR OA” value is reported as 0.630.
In the case of B13, the “DR/DR OA” value is reported as 1.188.
In the case of B14, the “DR/DR OA” value is reported as 0.968.
With B15 the “DR/DR OA” value was 1.478.
In the case of B16, the “DR/DR OA” value is reported as 1.146.

Experiment: Probe fluorescence ratio response to linoleic acid relative to ADIFAB2
Format: binding
Conditions: response relative to ADIFAB2
Method in brief: as §1
With B1 the “DR/DR LA” value was 1.467.
In the case of B2, the “DR/DR LA” value is reported as 1.466.
For B3, the “DR/DR LA” value was 1.555.
For B4, the “DR/DR LA” value was 1.442.
With B5 the “DR/DR LA” value was 1.527.
In the case of B6, the “DR/DR LA” value is reported as 1.732 and 1.652.
For B7, the “DR/DR LA” value was 1.819.
For B8, the “DR/DR LA” value was 1.375.
With B9 the “DR/DR LA” value was 1.516.
For B10, the “DR/DR LA” value was 2.242.
For B11, the “DR/DR LA” value was 1.194.
In the case of B12, the “DR/DR LA” value is reported as 1.171.
For B13, the “DR/DR LA” value was 1.981.
For B14, the “DR/DR LA” value was 1.715.
For B15, the “DR/DR LA” value was 1.942.
With B16 the “DR/DR LA” value was 1.726.

Experiment: Probe fluorescence ratio response to linolenic acid relative to ADIFAB2
Format: binding
Conditions: response relative to ADIFAB2
Method in brief: as §1
With B1 the “DR/DR LNA” value was 2.415.
With B2 the “DR/DR LNA” value was 2.093.
For B3, the “DR/DR LNA” value was 1.887.
In the case of B4, the “DR/DR LNA” value is reported as 1.736.
For B5, the “DR/DR LNA” value was 2.036.
In the case of B6, the “DR/DR LNA” value is reported as 2.318 and 2.203.
For B7, the “DR/DR LNA” value was 2.044.
In the case of B8, the “DR/DR LNA” value is reported as 1.706.
With B9 the “DR/DR LNA” value was 1.803.
With B10 the “DR/DR LNA” value was 2.176.
For B11, the “DR/DR LNA” value was 1.794.
In the case of B12, the “DR/DR LNA” value is reported as 1.775.
For B13, the “DR/DR LNA” value was 2.408.
For B14, the “DR/DR LNA” value was 1.946.
With B15 the “DR/DR LNA” value was 1.958.
In the case of B16, the “DR/DR LNA” value is reported as 2.384.

Experiment: Probe fluorescence ratio response to palmitoleic acid relative to ADIFAB2
Format: binding
Conditions: response relative to ADIFAB2
Method in brief: as §1
In the case of B1, the “DR/DR POA” value is reported as 2.519.
In the case of B2, the “DR/DR POA” value is reported as 3.016.
With B3 the “DR/DR POA” value was 2.042.
For B4, the “DR/DR POA” value was 2.011.
In the case of B5, the “DR/DR POA” value is reported as 2.677.
For B6, the “DR/DR POA” value was 2.730 and 2.522.
For B7, the “DR/DR POA” value was 2.662.
In the case of B8, the “DR/DR POA” value is reported as 2.422.
In the case of B9, the “DR/DR POA” value is reported as 1.903.
For B10, the “DR/DR POA” value was 2.088.
With B11 the “DR/DR POA” value was 3.236.
With B12 the “DR/DR POA” value was 2.381.
For B13, the “DR/DR POA” value was 2.478.
For B14, the “DR/DR POA” value was 2.122.
In the case of B15, the “DR/DR POA” value is reported as 2.008.
In the case of B16, the “DR/DR POA” value is reported as 3.507.
